Source: US20140213513A1 (Sanofi, priority 2012, published 2014)
*1 amine or outer side, *2 acyl side, *3 side chain or, on linkers, in order; H or OH if unused. Where no end group is shown, it is not given here. Side-chain parts run from the residue outwards. [ ]: non-standard residue; d: D form. The star is where a group is joined. γGlu = O=C(O)[C@H](CCC(=O)[*:2])N[*:1]; Palmitoyl = CCCCCCCCCCCCCCCC(=O)*; Aib = CC(C)(N)C(=O)O

T1: human GIP receptor (human, UniProt P48546 22-466)
T1 sequence (looked up): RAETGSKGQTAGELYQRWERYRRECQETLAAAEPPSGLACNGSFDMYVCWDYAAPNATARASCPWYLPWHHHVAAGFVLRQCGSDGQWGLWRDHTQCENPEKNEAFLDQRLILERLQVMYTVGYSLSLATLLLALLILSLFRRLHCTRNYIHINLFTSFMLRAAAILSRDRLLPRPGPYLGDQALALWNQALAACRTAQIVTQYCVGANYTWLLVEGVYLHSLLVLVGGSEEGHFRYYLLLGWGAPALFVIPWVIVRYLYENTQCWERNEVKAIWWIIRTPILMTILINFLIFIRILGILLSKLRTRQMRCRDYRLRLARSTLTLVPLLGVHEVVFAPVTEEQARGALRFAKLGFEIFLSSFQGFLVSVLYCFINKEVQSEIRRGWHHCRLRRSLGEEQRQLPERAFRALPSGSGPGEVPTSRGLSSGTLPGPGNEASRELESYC


Tests used:
Assay in all cases: cell-based or functional assay
[1] = molecular target: human GLP-1 receptor (human, UniProt P43220 24-463)
[2] = molecular target: T1, human GIP receptor
[3] = molecular target: human glucagon receptor (human, UniProt P47871 26-477)
human glucagon receptor, sequence (P47871 26-477): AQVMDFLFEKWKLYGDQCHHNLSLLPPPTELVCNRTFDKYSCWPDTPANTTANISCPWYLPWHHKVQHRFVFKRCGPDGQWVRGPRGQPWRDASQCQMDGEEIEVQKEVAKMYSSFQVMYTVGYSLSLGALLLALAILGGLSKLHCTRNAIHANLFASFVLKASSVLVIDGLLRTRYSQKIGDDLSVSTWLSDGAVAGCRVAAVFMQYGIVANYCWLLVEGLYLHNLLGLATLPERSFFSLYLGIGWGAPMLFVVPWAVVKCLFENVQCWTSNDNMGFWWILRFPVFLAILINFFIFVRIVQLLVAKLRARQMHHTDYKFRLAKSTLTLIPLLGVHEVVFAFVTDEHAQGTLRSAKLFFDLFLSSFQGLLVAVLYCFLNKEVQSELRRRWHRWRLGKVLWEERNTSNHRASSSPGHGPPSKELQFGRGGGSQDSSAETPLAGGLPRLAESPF

| Binder | EC50 hGLP-1 R [1] [nM] | EC50 hGIP R [2] [nM] | EC50 hGLUC R [3] [nM] |
| --- | --- | --- | --- |
| Y[Aib]QGTFTSDLSIQK([γGlu-Palmitoyl])DSRAAQDFIEWLKKGGPSSGAPPPS-NH2 (N-terminus assumed; SMILES CCCCCCCCCCCCCCCC(=O)N[C@@H](CCC(=O)NCCCC[C@H](NC(=O)[C@H](CCC(N)=O)NC(=O)[C@@H](NC(=O)[C@H](CO)NC(=O)[C@H](CC(C)C)NC(=O)[C@H](CC(=O)O)NC(=O)[C@H](CO)NC(=O)[C@@H](NC(=O)[C@H](Cc1ccccc1)NC(=O)[C@@H](NC(=O)CNC(=O)[C@H](CCC(N)=O)NC(=O)C(C)(C)NC(=O)[C@@H](N)Cc1ccc(O)cc1)[C@@H](C)O)[C@@H](C)O)[C@@H](C)CC)C(=O)N[C@@H](CC(=O)O)C(=O)N[C@@H](CO)C(=O)N[C@@H](CCCNC(=N)N)C(=O)N[C@@H](C)C(=O)N[C@@H](C)C(=O)N[C@@H](CCC(N)=O)C(=O)N[C@@H](CC(=O)O)C(=O)N[C@@H](Cc1ccccc1)C(=O)N[C@H](C(=O)N[C@@H](CCC(=O)O)C(=O)N[C@@H](Cc1c[nH]c2ccccc12)C(=O)N[C@@H](CC(C)C)C(=O)N[C@@H](CCCCN)C(=O)N[C@@H](CCCCN)C(=O)NCC(=O)NCC(=O)N1CCC[C@H]1C(=O)N[C@@H](CO)C(=O)N[C@@H](CO)C(=O)NCC(=O)N[C@@H](C)C(=O)N1CCC[C@H]1C(=O)N1CCC[C@H]1C(=O)N1CCC[C@H]1C(=O)N[C@@H](CO)C(N)=O)[C@@H](C)CC)C(=O)O) [exendin-4 peptide analogue SEQ ID NO: 43] | 0.007 | 0.0482 | 0.114 |
| Y[Aib]QGTFTSDLSIQK([γGlu-Palmitoyl])DKRAAQDFIEWLKKGGPSSGAPPPS-NH2 (N-terminus assumed; SMILES CCCCCCCCCCCCCCCC(=O)N[C@@H](CCC(=O)NCCCC[C@H](NC(=O)[C@H](CCC(N)=O)NC(=O)[C@@H](NC(=O)[C@H](CO)NC(=O)[C@H](CC(C)C)NC(=O)[C@H](CC(=O)O)NC(=O)[C@H](CO)NC(=O)[C@@H](NC(=O)[C@H](Cc1ccccc1)NC(=O)[C@@H](NC(=O)CNC(=O)[C@H](CCC(N)=O)NC(=O)C(C)(C)NC(=O)[C@@H](N)Cc1ccc(O)cc1)[C@@H](C)O)[C@@H](C)O)[C@@H](C)CC)C(=O)N[C@@H](CC(=O)O)C(=O)N[C@@H](CCCCN)C(=O)N[C@@H](CCCNC(=N)N)C(=O)N[C@@H](C)C(=O)N[C@@H](C)C(=O)N[C@@H](CCC(N)=O)C(=O)N[C@@H](CC(=O)O)C(=O)N[C@@H](Cc1ccccc1)C(=O)N[C@H](C(=O)N[C@@H](CCC(=O)O)C(=O)N[C@@H](Cc1c[nH]c2ccccc12)C(=O)N[C@@H](CC(C)C)C(=O)N[C@@H](CCCCN)C(=O)N[C@@H](CCCCN)C(=O)NCC(=O)NCC(=O)N1CCC[C@H]1C(=O)N[C@@H](CO)C(=O)N[C@@H](CO)C(=O)NCC(=O)N[C@@H](C)C(=O)N1CCC[C@H]1C(=O)N1CCC[C@H]1C(=O)N1CCC[C@H]1C(=O)N[C@@H](CO)C(N)=O)[C@@H](C)CC)C(=O)O) [exendin-4 peptide analogue SEQ ID NO: 44] | 0.0097 | 0.0255 | 0.0552 |
| Y[Aib]QGTFTSDLSIQK([γGlu-Palmitoyl])EKRAAQLFIEWLKNGGPSSGAPPPS-NH2 (N-terminus assumed; SMILES CCCCCCCCCCCCCCCC(=O)N[C@@H](CCC(=O)NCCCC[C@H](NC(=O)[C@H](CCC(N)=O)NC(=O)[C@@H](NC(=O)[C@H](CO)NC(=O)[C@H](CC(C)C)NC(=O)[C@H](CC(=O)O)NC(=O)[C@H](CO)NC(=O)[C@@H](NC(=O)[C@H](Cc1ccccc1)NC(=O)[C@@H](NC(=O)CNC(=O)[C@H](CCC(N)=O)NC(=O)C(C)(C)NC(=O)[C@@H](N)Cc1ccc(O)cc1)[C@@H](C)O)[C@@H](C)O)[C@@H](C)CC)C(=O)N[C@@H](CCC(=O)O)C(=O)N[C@@H](CCCCN)C(=O)N[C@@H](CCCNC(=N)N)C(=O)N[C@@H](C)C(=O)N[C@@H](C)C(=O)N[C@@H](CCC(N)=O)C(=O)N[C@@H](CC(C)C)C(=O)N[C@@H](Cc1ccccc1)C(=O)N[C@H](C(=O)N[C@@H](CCC(=O)O)C(=O)N[C@@H](Cc1c[nH]c2ccccc12)C(=O)N[C@@H](CC(C)C)C(=O)N[C@@H](CCCCN)C(=O)N[C@@H](CC(N)=O)C(=O)NCC(=O)NCC(=O)N1CCC[C@H]1C(=O)N[C@@H](CO)C(=O)N[C@@H](CO)C(=O)NCC(=O)N[C@@H](C)C(=O)N1CCC[C@H]1C(=O)N1CCC[C@H]1C(=O)N1CCC[C@H]1C(=O)N[C@@H](CO)C(N)=O)[C@@H](C)CC)C(=O)O) [exendin-4 peptide analogue SEQ ID NO: 45] | 0.0114 | 0.0234 | 0.0797 |
| Y[Aib]QGTFTSDLSIQK([γGlu-Palmitoyl])EKRAVQLFIEWLKNGGPSSGAPPPS-NH2 (N-terminus assumed; SMILES CCCCCCCCCCCCCCCC(=O)N[C@@H](CCC(=O)NCCCC[C@H](NC(=O)[C@H](CCC(N)=O)NC(=O)[C@@H](NC(=O)[C@H](CO)NC(=O)[C@H](CC(C)C)NC(=O)[C@H](CC(=O)O)NC(=O)[C@H](CO)NC(=O)[C@@H](NC(=O)[C@H](Cc1ccccc1)NC(=O)[C@@H](NC(=O)CNC(=O)[C@H](CCC(N)=O)NC(=O)C(C)(C)NC(=O)[C@@H](N)Cc1ccc(O)cc1)[C@@H](C)O)[C@@H](C)O)[C@@H](C)CC)C(=O)N[C@@H](CCC(=O)O)C(=O)N[C@@H](CCCCN)C(=O)N[C@@H](CCCNC(=N)N)C(=O)N[C@@H](C)C(=O)N[C@H](C(=O)N[C@@H](CCC(N)=O)C(=O)N[C@@H](CC(C)C)C(=O)N[C@@H](Cc1ccccc1)C(=O)N[C@H](C(=O)N[C@@H](CCC(=O)O)C(=O)N[C@@H](Cc1c[nH]c2ccccc12)C(=O)N[C@@H](CC(C)C)C(=O)N[C@@H](CCCCN)C(=O)N[C@@H](CC(N)=O)C(=O)NCC(=O)NCC(=O)N1CCC[C@H]1C(=O)N[C@@H](CO)C(=O)N[C@@H](CO)C(=O)NCC(=O)N[C@@H](C)C(=O)N1CCC[C@H]1C(=O)N1CCC[C@H]1C(=O)N1CCC[C@H]1C(=O)N[C@@H](CO)C(N)=O)[C@@H](C)CC)C(C)C)C(=O)O) [exendin-4 peptide analogue SEQ ID NO: 46] | 0.0235 | 0.0202 | 0.53 |
| Y[Aib]QGTFTSDLSIQK([γGlu-Palmitoyl])DKRAVQLFIEWLKNGGPSSGAPPPS-NH2 (N-terminus assumed; SMILES CCCCCCCCCCCCCCCC(=O)N[C@@H](CCC(=O)NCCCC[C@H](NC(=O)[C@H](CCC(N)=O)NC(=O)[C@@H](NC(=O)[C@H](CO)NC(=O)[C@H](CC(C)C)NC(=O)[C@H](CC(=O)O)NC(=O)[C@H](CO)NC(=O)[C@@H](NC(=O)[C@H](Cc1ccccc1)NC(=O)[C@@H](NC(=O)CNC(=O)[C@H](CCC(N)=O)NC(=O)C(C)(C)NC(=O)[C@@H](N)Cc1ccc(O)cc1)[C@@H](C)O)[C@@H](C)O)[C@@H](C)CC)C(=O)N[C@@H](CC(=O)O)C(=O)N[C@@H](CCCCN)C(=O)N[C@@H](CCCNC(=N)N)C(=O)N[C@@H](C)C(=O)N[C@H](C(=O)N[C@@H](CCC(N)=O)C(=O)N[C@@H](CC(C)C)C(=O)N[C@@H](Cc1ccccc1)C(=O)N[C@H](C(=O)N[C@@H](CCC(=O)O)C(=O)N[C@@H](Cc1c[nH]c2ccccc12)C(=O)N[C@@H](CC(C)C)C(=O)N[C@@H](CCCCN)C(=O)N[C@@H](CC(N)=O)C(=O)NCC(=O)NCC(=O)N1CCC[C@H]1C(=O)N[C@@H](CO)C(=O)N[C@@H](CO)C(=O)NCC(=O)N[C@@H](C)C(=O)N1CCC[C@H]1C(=O)N1CCC[C@H]1C(=O)N1CCC[C@H]1C(=O)N[C@@H](CO)C(N)=O)[C@@H](C)CC)C(C)C)C(=O)O) [exendin-4 peptide analogue SEQ ID NO: 47] | 0.0156 | 0.0442 | 2.39 |
| Y[Aib]QGTFTSDLSIQK([γGlu-Palmitoyl])DSEAAQDFIEWLKAGGPSSGAPPPS-NH2 (N-terminus assumed; SMILES CCCCCCCCCCCCCCCC(=O)N[C@@H](CCC(=O)NCCCC[C@H](NC(=O)[C@H](CCC(N)=O)NC(=O)[C@@H](NC(=O)[C@H](CO)NC(=O)[C@H](CC(C)C)NC(=O)[C@H](CC(=O)O)NC(=O)[C@H](CO)NC(=O)[C@@H](NC(=O)[C@H](Cc1ccccc1)NC(=O)[C@@H](NC(=O)CNC(=O)[C@H](CCC(N)=O)NC(=O)C(C)(C)NC(=O)[C@@H](N)Cc1ccc(O)cc1)[C@@H](C)O)[C@@H](C)O)[C@@H](C)CC)C(=O)N[C@@H](CC(=O)O)C(=O)N[C@@H](CO)C(=O)N[C@@H](CCC(=O)O)C(=O)N[C@@H](C)C(=O)N[C@@H](C)C(=O)N[C@@H](CCC(N)=O)C(=O)N[C@@H](CC(=O)O)C(=O)N[C@@H](Cc1ccccc1)C(=O)N[C@H](C(=O)N[C@@H](CCC(=O)O)C(=O)N[C@@H](Cc1c[nH]c2ccccc12)C(=O)N[C@@H](CC(C)C)C(=O)N[C@@H](CCCCN)C(=O)N[C@@H](C)C(=O)NCC(=O)NCC(=O)N1CCC[C@H]1C(=O)N[C@@H](CO)C(=O)N[C@@H](CO)C(=O)NCC(=O)N[C@@H](C)C(=O)N1CCC[C@H]1C(=O)N1CCC[C@H]1C(=O)N1CCC[C@H]1C(=O)N[C@@H](CO)C(N)=O)[C@@H](C)CC)C(=O)O) [exendin-4 peptide analogue SEQ ID NO: 48] | 0.0101 | 0.0158 | 0.478 |
